Assay results reported in paper PMC6028617, “ADP-Dependent Kinases From the Archaeal Order Methanosarcinales Adapt to Salt by a Non-canonical Evolutionarily Conserved Strategy” (Frontiers in Microbiology, 2018).

T1: AncMsPFK/GK (synthetic construct, UniProt Z9Y5W3ZEF0)
T1 construct: heat step 80 C, Ni-Sepharose
T1 sequence (Z9Y5W3ZEF0 22-511): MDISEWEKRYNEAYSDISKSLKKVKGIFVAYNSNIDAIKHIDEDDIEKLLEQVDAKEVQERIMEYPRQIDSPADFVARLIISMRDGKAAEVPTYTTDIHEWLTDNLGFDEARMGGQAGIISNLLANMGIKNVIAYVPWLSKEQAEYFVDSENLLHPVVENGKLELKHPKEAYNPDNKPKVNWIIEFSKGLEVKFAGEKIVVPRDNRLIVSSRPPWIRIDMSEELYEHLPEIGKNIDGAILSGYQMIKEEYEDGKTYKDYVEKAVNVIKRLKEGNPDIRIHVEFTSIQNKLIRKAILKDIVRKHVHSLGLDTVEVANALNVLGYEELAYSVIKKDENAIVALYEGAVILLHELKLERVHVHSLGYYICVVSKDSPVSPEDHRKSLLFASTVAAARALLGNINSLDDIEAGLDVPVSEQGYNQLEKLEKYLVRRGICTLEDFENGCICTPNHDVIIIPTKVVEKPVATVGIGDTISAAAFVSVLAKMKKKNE


Legend:
AncMsPFK/GK = biological target: T1, AncMsPFK/GK; assay: X-ray crystal structure, […] Å; format: binding; conditions: Mg2+ in active site; Ni2+ at three surface sites; crystals pH 4.5
purified protein = substrate: Nc1ncnc2c1ncn2[C@@H]1O[C@H](COP(=O)(O)OP(=O)(O)O)[C@@H](O)[C@H]1O; assay: purified protein; format: biochemical, Methanosarcina mazei; conditions: PFK activity, saturating fructose-6P, 25 mM PIPES pH 6.5, 40 C, as Mg-ADP

Molecule | X-ray crystal structure, 2.86 Å (AncMsPFK/GK) | Km (purified protein) [µM] | kcat (purified protein) [s⁻¹] | kcat/Km (purified protein) [M⁻¹ s⁻¹]
Nc1ncnc2c1ncn2[C@@H]1O[C@H](COP(=O)(O)OP(=O)(O)O)[C@@H](O)[C@H]1O [ADP] | crystals for the ancMsPFK/GK in complex with ADP, which was solved by molecular replacement |  |  | 
MmazPFK/GK (Methanosarcina mazei Go1) (protein, de novo codon-optimized gene in pET-15b, N-terminal poly-His tag, E. coli C41; heat step 50 C, Ni-NTA, HiTrap-Q) MDMEEWEQRHNEAFYDAKEALPYLDGMFVAYNSNIDAIRHLDEEALTKLIGFFDEAEIQERVAVYPREIADPLDFIARLLIAMREGKAAEVPTYTEEIHTWLKEHLGFDYARMGGQAGIISNLLARLDLKKVVAYIPWLSAEQAEYFEDNGNILHPKVENGEVVLKTPAEAFNPGMGSKVNWIFEFSKDLKVSCAGSTFKVPRDNRLIISSRPKWIRLDMDRAIYDQLETIFPVDGAMLSGYQMIKEEYEDGSTYKDYVEHSVEVINKLKSLNPDLRIHVELTSIQNRVIRKAILTEIVARHVHSLGLDTVEVANALNVLGYEELSYSVIRKGENGIMSLYQGAVQLMKDLKLERVHVHSLGFYICILAKGHPLTLKEHRDALLFSSVLAASRALHGKIEDLNEAETGLDVPVSAQGLEDLETFKLYCTGRKLCSPDEFEYGYIYGSDHDAILIPSKVVDRPKATVGIGDTISAGAFAAMLARMKQIKSGK |  | 72 ± 9 | 6.1 ± 0.3 | 84500
